From US20110171222A1 (Hoffmann-La Roche, published 2011) come the findings set out here.

Usually Kd stands for the equilibrium constant for the complex coming apart. Read a low Kd as higher affinity.

In experiment [1] the target is HER3 on MCF7, FaDu and Mel-Juso tumor cells (human) (UniProt P21860). The experiment in a line: cell-based or functional assay.
For another experiment, the target named is T1, human HER3 ECD (human, UniProt P21860 20-643).
T1 construct: also called hHER3-ECD; hu-HER3-ECD
As to the kind of experiment: SPR (Biacore T100), antibody captured by anti-Fc gamma, HER3 ECD as analyte, 25 °C, 1:1 Langmuir model.

The target of experiment [2] is T2, Soluble human HER3 extracellular domain fused to Streptavidin Binding Protein (SBP) (human, UniProt P21860 20-643).
T2 construct: It was used as HEK293 supernatant captured on streptavidin plates; also called SBP-HER3
The experiment in a line: ELISA, SBP-HER3 ECD captured on streptavidin plate, anti-human IgG-HRP detection. (ELISA stands for enzyme-linked immunosorbent assay.)
Procedure: Soluble human HER3 extracellular domain fused to Streptavidin Binding Protein (SBP) was captured on a streptavidin plate. […] For the standard coating, SBP-HER3 containing HEK293 supernatant was diluted (between 1:15 and 1:40) and incubated overnight at 2-80 C (25 μl per well). Intensive washing of the microtiter plate was necessary to remove remaining unbound SBP-HER3.
Antibodies were tested either undiluted or using a 12-step-dilution. 12.5 μl per well of each sample was incubated for 90 min at room temperature.

Experiment [3] deals with T2, Soluble human HER3 extracellular domain …. The experiment in a line: ratio of the concentration by HER3-ECD ELISA to the concentration by IgG ELISA.

Procedure for human HER3 ECD: After conjugation, anti-HER3 antibodies were injected at 25° C. at a flow rate of 5 μL/min, followed by a dilution series (0 nM to 1000 nM) of human HER3 ECD at 30 μL/min. As running buffer for the binding experiment PBS/0.1% BSA was used. The chip was then regenerated with a 60 s pulse of 10 mM glycine-HCl, pH 2.0 solution.
Calculation of thermodynamic parameters (KD, binding constant to HER3) were calculated using a Langmuir 1:1 binding model.

B1: U1-53 (antibody, from another filing, V domains shown)
VH: EVQLVESGGGLVQPGGSLRLSCAASGFTFSIYSMNWVRQAPGKGLEWVSYISSSSSTIYYADSVKGRFTISRDNAKNSLYLQMNSLRDEDTAVYYCARDRGDFDAFDIWGQGTMVTVSS
VL: DIQMTQSPSSLSASVGDRVTITCQASQDITNYLNWYQQKPGKAPKLLIYDASNLETGVPSRFSGSGSGTDFTFTISSLQPEDIATYNCQQCENFPITFGQGTRLEIK
Turning to B1, in experiment [1], the pHER3 % inhibition [0.1 µg/ml], MCF7 cells was 54% and the pHER3 % inhibition [1.0 µg/ml], MCF7 cells came to 51%.

B2: Mab 205.10.1 (antibody, V domains shown)
VH: QVQLVQSGAEVKKPGASVKVSCKASGYTFRSSYISWVRQAPGQGLEWMGWIYAGTGSPSYNQKLQGRVTMTTDTSTSTAYMELRSLRSDDTAVYYCARHRDYYSNSLTYWGQGTLVTVSS
VL: DIVMTQSPDSLAVSLGERATINCKSSQSLLNSGNQKNYLTWYQQKPGQPPKLLIYWASTRESGVPDRFSGSGSGTDFTLTISSLQAEDVAVYYCQSDYSYPYTFGQGTKLEIK
notes: Humanized antibody; Only the variable domains are tied to it; The assays detected it with anti-human IgG or captured it with anti-Fc gamma
For B2, the Kd with human HER3 ECD came to 2 nM. Further, in experiment [2], the hu_HER3-ECD-ELISA c came out at 583 µg/mL. In experiment [3], the “activity (ratio binding to hu_HER3-ECD/IgG)” value turned out to be 0.74.

B3: Mab 205.10.3 (antibody, human IgG1, V domains shown)
VH: QVQLVQSGAEVKKPGASVKVSCKASGYTFRSSYISWVRQAPGQGLEWMGWIYAGTGSPSYNQKLQGRVTMTTDTSTSTAYMELRSLRSDDTAVYYCARHRDYYSNSLTYWGQGTLVTVSS
VL: DIVMTQSPDSLAVSLGERATINCKSSQSLLNSGNQKNYLTWYQQKPGQPPKLLIYWASTRESGVPDRFSGSGSGTDFTLTISSLQAEDVSIYYCQSDYSYPYTFGQGTKLEIK
notes: Humanized antibody; Only the variable domains are tied to it
For the molecule B3, the affinity with human HER3 ECD, expressed as Kd, was 2 nM. The same molecule came in with a hu_HER3-ECD-ELISA c in experiment [2] of 505 µg/mL. Further, the “activity (ratio binding to hu_HER3-ECD/IgG)” value in experiment [3] worked out at 0.83.
